Reference: PMC7160020 (Biochemistry, 2020)
Like-named read-outs stand apart in the source and are kept apart here.

Tests used:
[1] = target: RNR β2 (Escherichia coli) (UniProt P69924); settings: cited from earlier work
[2] = target: RNR β2 (Escherichia coli) (UniProt P69924); settings: cited from earlier work; remark: listed apart in the source
[3] = target: dansyl-β2 (C268S/C305S/V365C-β2 labeled with BADAN) (E. coli); assay: stopped-flow fluorescence spectroscopy
[4] = target: dansyl-β2 (C268S/C305S/V365C-β2 labeled with BADAN) (E. coli); assay: stopped-flow fluorescence spectroscopy; remark: listed apart in the source
[5] = target: dansyl-β2 (C268S/C305S/V365C-β2 labeled with BADAN) (E. coli); assay: stopped-flow fluorescence spectroscopy; remark: listed apart in the source
[6] = target: dansyl-β2 (C268S/C305S/V365C-β2 labeled with BADAN) (E. coli); assay: stopped-flow fluorescence spectroscopy; remark: listed apart in the source
[7] = target: T1, His6-α2 (E. coli class Ia ribonucleotide reductase α subunit, NrdA) (E. coli, UniProt P00452 1-761); assay: stopped-flow fluorescence spectroscopy
T1 sequence (looked up): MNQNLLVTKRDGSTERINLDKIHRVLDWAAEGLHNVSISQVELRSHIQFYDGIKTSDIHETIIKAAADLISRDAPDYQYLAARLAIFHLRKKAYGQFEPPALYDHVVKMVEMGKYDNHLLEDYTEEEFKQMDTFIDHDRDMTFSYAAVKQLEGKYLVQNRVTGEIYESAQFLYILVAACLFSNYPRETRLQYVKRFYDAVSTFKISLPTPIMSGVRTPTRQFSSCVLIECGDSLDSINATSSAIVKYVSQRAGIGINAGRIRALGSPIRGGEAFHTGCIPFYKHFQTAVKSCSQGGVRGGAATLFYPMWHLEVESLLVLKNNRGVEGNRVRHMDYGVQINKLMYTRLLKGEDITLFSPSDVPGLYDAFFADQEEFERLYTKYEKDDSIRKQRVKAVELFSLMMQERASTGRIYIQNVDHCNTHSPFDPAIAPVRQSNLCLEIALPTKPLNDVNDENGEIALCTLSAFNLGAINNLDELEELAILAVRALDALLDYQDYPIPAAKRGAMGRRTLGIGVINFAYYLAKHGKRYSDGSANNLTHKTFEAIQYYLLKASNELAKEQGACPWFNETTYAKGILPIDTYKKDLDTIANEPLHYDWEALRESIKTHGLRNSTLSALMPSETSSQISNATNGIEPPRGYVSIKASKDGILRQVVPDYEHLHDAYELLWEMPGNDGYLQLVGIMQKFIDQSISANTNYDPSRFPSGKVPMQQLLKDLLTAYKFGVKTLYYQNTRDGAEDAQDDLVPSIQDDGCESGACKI

RNR α2 (from UniProt P00452)
Kd [1]: 200 nM | Kd [2]: 400 nM

B1: His6-α2 (E. coli class Ia ribonucleotide reductase α subunit, NrdA) (enzyme)
chain: T1 sequence (looked up)
k dissoc, faster phase of the biexponential decay (α4β4 state, with dATP) [3]: 7 s⁻¹ | k dissoc, slower phase of the biexponential decay (α4β4 state, with dATP) [3]: 0.46 s⁻¹ | koff [3]: 109 s⁻¹ | kon [3]: 1.63e+08 M⁻¹ s⁻¹ | kon [4]: 1.93e+08 M⁻¹ s⁻¹ | kon [5]: 1.56e+08 M⁻¹ s⁻¹ | kon [6]: 1.79e+08 M⁻¹ s⁻¹

B2: met-β2 (wt-β2 with the tyrosyl radical reduced by hydroxyurea) (enzyme, E. coli, UniProt P69924 1-376, looked up)
chain: MAYTTFSQTKNDQLKEPMFFGQPVNVARYDQQKYDIFEKLIEKQLSFFWRPEEVDVSRDRIDYQALPEHEKHIFISNLKYQTLLDSIQGRSPNVALLPLISIPELETWVETWAFSETIHSRSYTHIIRNIVNDPSVVFDDIVTNEQIQKRAEGISSYYDELIEMTSYWHLLGEGTHTVNGKTVTVSLRELKKKLYLCLMSVNALEAIRFYVSFACSFAFAERELMEGNAKIIRLIARDEALHLTGTQHMLNLLRSGADDPEMAEIAEECKQECYDLFVQAAQQEKDWADYLFRDGSMIGLNKDILCQYVEYITNIRMQAVGLDLPFQTRSNPIPWINTWLVSDNVQVAPQEVEVSSYLVGQIDSEVDTDDLSNFQL
modifications: diferric center, Y122• reduced by hydroxyurea
binding result [7]: binds
